System: 340R WT (MBP fusion) (Invertebrate iridescent virus 6 (IIV-6))
Test: EMSA
Conditions: EMSA 1 h at room temperature, 5 ng long dsRNA or 1 nM siRNA/19-nt dsRNA; 6% or 12% native PAGE; binding buffer not given (as ref 11); protein dialysis/storage …

19-nt blunt dsRNA
Kd: 1170 nM

126-nt long dsRNA
Kd: 139 nM

21-nt siRNA duplex
Kd: 718 nM

— paper PMC4231766
